US20060052582

Key:
[1] = molecular target: GST Nek7, unphosphorylated (bacterial recombinant)
[2] = molecular target: myc 6His Nek6 (Nek6 with carboxy terminal myc/6His epitopes)
myc 6His Nek6 (Nek6 with carboxy terminal myc/6His epitopes), sequence (chain, as listed by the source): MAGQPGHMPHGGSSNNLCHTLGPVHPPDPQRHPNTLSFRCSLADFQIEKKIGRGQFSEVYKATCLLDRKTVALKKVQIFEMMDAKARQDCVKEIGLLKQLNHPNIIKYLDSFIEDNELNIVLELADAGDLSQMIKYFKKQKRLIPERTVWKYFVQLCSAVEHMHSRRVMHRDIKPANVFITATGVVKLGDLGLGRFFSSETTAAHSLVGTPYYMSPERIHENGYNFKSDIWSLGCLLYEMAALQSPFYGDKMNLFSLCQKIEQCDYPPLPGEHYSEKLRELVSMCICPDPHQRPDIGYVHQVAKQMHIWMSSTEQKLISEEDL

GST Nek6, sequence (chain, as listed by the source): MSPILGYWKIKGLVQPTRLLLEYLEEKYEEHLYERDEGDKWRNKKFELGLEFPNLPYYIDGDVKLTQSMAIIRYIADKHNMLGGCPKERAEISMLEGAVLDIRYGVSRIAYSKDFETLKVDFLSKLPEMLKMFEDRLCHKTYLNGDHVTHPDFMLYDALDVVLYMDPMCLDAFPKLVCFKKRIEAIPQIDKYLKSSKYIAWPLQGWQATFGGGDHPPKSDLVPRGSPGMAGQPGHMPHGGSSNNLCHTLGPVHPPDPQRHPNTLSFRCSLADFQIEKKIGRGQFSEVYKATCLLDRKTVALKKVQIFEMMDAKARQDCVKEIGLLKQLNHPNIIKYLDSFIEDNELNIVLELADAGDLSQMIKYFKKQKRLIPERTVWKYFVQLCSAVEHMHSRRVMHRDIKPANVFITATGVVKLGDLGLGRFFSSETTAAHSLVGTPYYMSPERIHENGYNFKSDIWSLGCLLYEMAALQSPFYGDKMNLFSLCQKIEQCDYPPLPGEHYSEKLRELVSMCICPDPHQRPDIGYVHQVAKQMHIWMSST
GST Nek7, unphosphorylated (bacterial recombinant), sequence (chain, as listed by the source): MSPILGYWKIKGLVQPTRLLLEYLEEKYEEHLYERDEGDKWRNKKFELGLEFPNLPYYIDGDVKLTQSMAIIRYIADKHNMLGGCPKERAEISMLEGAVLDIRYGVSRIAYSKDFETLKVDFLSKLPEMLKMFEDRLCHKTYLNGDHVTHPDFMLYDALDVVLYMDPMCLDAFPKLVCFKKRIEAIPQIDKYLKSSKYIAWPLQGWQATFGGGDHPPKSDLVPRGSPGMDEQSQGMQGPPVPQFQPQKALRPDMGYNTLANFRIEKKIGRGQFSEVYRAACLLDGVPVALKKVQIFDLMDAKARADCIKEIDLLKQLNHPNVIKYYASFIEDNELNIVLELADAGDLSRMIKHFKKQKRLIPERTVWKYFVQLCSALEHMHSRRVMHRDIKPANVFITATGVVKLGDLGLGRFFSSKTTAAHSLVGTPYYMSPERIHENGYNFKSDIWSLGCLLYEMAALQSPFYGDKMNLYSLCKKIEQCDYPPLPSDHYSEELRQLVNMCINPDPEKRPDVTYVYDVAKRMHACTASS
GST Nek6 (K74M/K75M), sequence (chain, as listed by the source K74M K75M): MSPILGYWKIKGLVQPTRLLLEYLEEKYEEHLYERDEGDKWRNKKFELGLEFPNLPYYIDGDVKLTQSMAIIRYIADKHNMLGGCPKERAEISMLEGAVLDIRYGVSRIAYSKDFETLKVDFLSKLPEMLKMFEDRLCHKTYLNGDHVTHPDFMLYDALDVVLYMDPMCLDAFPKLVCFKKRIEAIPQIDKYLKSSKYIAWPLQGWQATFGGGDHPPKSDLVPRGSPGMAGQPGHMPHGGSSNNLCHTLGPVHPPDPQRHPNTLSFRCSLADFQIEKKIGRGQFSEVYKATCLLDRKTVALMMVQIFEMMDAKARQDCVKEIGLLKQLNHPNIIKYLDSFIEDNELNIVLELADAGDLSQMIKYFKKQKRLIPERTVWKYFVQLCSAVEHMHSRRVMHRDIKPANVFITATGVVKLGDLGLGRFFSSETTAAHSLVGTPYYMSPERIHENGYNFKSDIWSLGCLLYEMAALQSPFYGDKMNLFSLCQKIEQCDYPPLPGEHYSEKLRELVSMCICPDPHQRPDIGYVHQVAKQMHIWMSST

Protein | Nek6/7 kinase activity (32P into GST Cdc16 Ct) (GST Nek6) | phosphorylation of Nek6 (K74M/K75M) at Ser206 in vitro (GST Nek6 (K74M/K75M)) | Nek6/7 kinase activity (32P into GST Cdc16 Ct) [1] | specific activity of coexpressed Nek6 [2]
FLAG Nercc (full-length wild type Nercc1 kinase with FLAG epitope tag) (protein) MDYKDDDDKMSVLGEYERHCDSINSDFGSESGGCGDSSPGPSASQGPRAGGGAAEQEELHYIPIRVLGRGAFGEATLYRRTEDDSLVVWKEVDLTRLSEKERRDALNEIVILALLQHDNIIAYYNHFMDNTTLLIELEYCNGGNLYDKILRQKDKLFEEEMVVWYLFQIVSAVSCIHKAGILHRDIKTLNIFLTKANLIKLGDYGLAKKLNSEYSMAETLVGTPYYMSPELCQGVKYNFKSDIWAVGCVIFELLTLKRTFDATNPLNLCVKIVQGIRAMEVDSSQYSLELIQMVHSCLDQDPEQRPTADELLDRPLLRKRRREMEEKVTLLNAPTKRPRSSTVTEAPIAVVTSRTSEVYIWGGGKSTPQKLDVIKSGCSARQVCAGNTHFAVVTVEKELYTWVNMQGGTKLHGQLGHGDKASYRQPKHVEKLQGKAIHQVSCGDDFTVCVTDEGQLYAFGSDYYGCMGVDKVAGPEVLEPMQLNFFLSNPVEQVSCGDNHVVVLTRNKEVYSWGCGEYGRLGLDSEEDYYTPQKVDVPKALIIVAVQCGCDGTFLLTQSGKVLACGLNEFNKLGLNQCMSGIINHEAYHEVPYTTSFTLAKQLSFYKIRTIAPGKTHTAAIDERGRLLTFGCNKCGQLGVGNYKKRLGINLLGGPLGGKQVIRVSCGDEFTIAATDDNHIFAWGNGGNGRLAMTPTERPHGSDICTSWPRPIFGSLHHVPDLSCRGWHTILIVEKVLNSKTIRSNSSGLSIGTVFQSSSPGGGGGGGGGEEEDSQQESETPDPSGGFRGTMEADRGMEGLISPTEAMGNSNGASSSCPGWLRKELENAEFIPMPDSPSPLSAAFSESEKDTLPYEELQGLKVASEAPLEHKPQVEASSPRLNPAVTCAGKGTPLTPPACACSSLQVEVERLQGLVLKCLAEQQKLQQENLQIFTQLQKLNKKLEGGQQVGMHSKGTQTAKEEMEMDPKPDLDSDSGCLLGTDSCRPSL | 20-25 fold activation of Nek6/7 kinase activity | This modification occurred, however, with a rather low efficiency | 20-25 fold activation of Nek6/7 kinase activity | 
FLAG Nercc (Δ347-732) (protein) MDYKDDDDKMSVLGEYERHCDSINSDFGSESGGCGDSSPGPSASQGPRAGGGAAEQEELHYIPIRVLGRGAFGEATLYRRTEDDSLVVWKEVDLTRLSEKERRDALNEIVILALLQHDNIIAYYNHFMDNTTLLIELEYCNGGNLYDKILRQKDKLFEEEMVVWYLFQIVSAVSCIHKAGILHRDIKTLNIFLTKANLIKLGDYGLAKKLNSEYSMAETLVGTPYYMSPELCQGVKYNFKSDIWAVGCVIFELLTLKRTFDATNPLNLCVKIVQGIRAMEVDSSQYSLELIQMVHSCLDQDPEQRPTADELLDRPLLRKRRREMEEKVTLLNAPTKRPRSSTVTEAPIAVVTSRTIRSNSSGLSIGTVFQSSSPGGGGGGGGGEEEDSQQESETPDPSGGFRGTMEADRGMEGLISPTEAMGNSNGASSSCPGWLRKELENAEFIPMPDSPSPLSAAFSESEKDTLPYEELQGLKVASEAPLEHKPQVEASSPRLNPAVTCAGKGTPLTPPACACSSLQVEVERLQGLVLKCLAEQQKLQQENLQIFTQLQKLNKKLEGGQQVGMHSKGTQTAKEEMEMDPKPDLDSDSGCLLGTDSCRPSL |  |  |  | a two-fold increase in the specific activity of coexpressed Nek6
